Test in all cases: split reporter
Test [1] deals with HIV-1 Nef (SF2) Y115D, YFP BiFC fusions (HIV-1 (SF2 allele)).
The target in test [2] is HIV-1 Nef (SF2) I109D/L112D/Y115D/F121D, YFP BiFC fusions (HIV-1 (SF2 allele)).
Test [3] has as its target HIV-1 Nef (SF2) D123A, YFP BiFC fusions (HIV-1 (SF2 allele)).
Test [4] deals with HIV-1 Nef (SF2) R105E/R106E, YFP BiFC fusions (HIV-1 (SF2 allele)).
In test [5] the target is HIV-1 Nef (SF2) L112A, YFP BiFC fusions (HIV-1 (SF2 allele)).
Test [6] has as its target HIV-1 Nef (SF2) 2PA (SH3-binding motif mutant), YFP BiFC fusions (HIV-1 (SF2 allele)) (UniProt P03407).
In test [7] the target is HIV-1 Nef (SF2) R105E, YFP BiFC fusions (HIV-1 (SF2 allele)).
The target of test [8] is HIV-1 Nef (SF2) D123V, YFP BiFC fusions (HIV-1 (SF2 allele)).
Test [9] addresses HIV-1 Nef (SF2) L112D, YFP BiFC fusions (HIV-1 (SF2 allele)).
Test [10] has as its target HIV-1 Nef (SF2) L112D/Y115D, YFP BiFC fusions (HIV-1 (SF2 allele)).
In test [11] the target is HIV-1 Nef (SF2) F121A, YFP BiFC fusions (HIV-1 (SF2 allele)).
Test [12] has as its target HIV-1 Nef (SF2) D123N, YFP BiFC fusions (HIV-1 (SF2 allele)).

For 12 substances, % decrease in BiFC relative to WT results are on record in paper PMC2783173.

In turn, “HIV-1 Nef (SF2) Y115D, YFP BiFC fusions (natural protein)” came in with a % decrease in BiFC relative to WT in [1] of 59.1%.

In test [2], “HIV-1 Nef (SF2) I109D/L112D/Y115D/F121D, YFP BiFC fusions (natural protein)” yielded a % decrease in BiFC relative to WT of 99.9%.

In test [3], “HIV-1 Nef (SF2) D123A, YFP BiFC fusions (natural protein)” displayed a % decrease in BiFC relative to WT of 69.6%.

Turning to “HIV-1 Nef (SF2) R105E/R106E, YFP BiFC fusions (natural protein)”, in test [4], the % decrease in BiFC relative to WT was 71.1%.

Consider “HIV-1 Nef (SF2) L112A, YFP BiFC fusions (natural protein)”, for which the % decrease in BiFC relative to WT in test [5] was determined as 52.8%.

In test [6], “HIV-1 Nef (SF2) 2PA (SH3-binding motif mutant), YFP BiFC fusions (from UniProt P03407) (natural protein)” displayed a % decrease in BiFC relative to WT of 0%.

“HIV-1 Nef (SF2) R105E, YFP BiFC fusions (natural protein)” registered a % decrease in BiFC relative to WT in test [7] of 49.9%.

In [8], “HIV-1 Nef (SF2) D123V, YFP BiFC fusions (natural protein)” yielded a % decrease in BiFC relative to WT of 52.9%.

Turning to “HIV-1 Nef (SF2) L112D, YFP BiFC fusions (natural protein)”, the % decrease in BiFC relative to WT in [9] turned out to be 47.5%.

In turn, “HIV-1 Nef (SF2) L112D/Y115D, YFP BiFC fusions (natural protein)” showed a % decrease in BiFC relative to WT in test [10] of 86.7%.

In test [11], “HIV-1 Nef (SF2) F121A, YFP BiFC fusions (natural protein)” came in with a % decrease in BiFC relative to WT of 33%.

Consider “HIV-1 Nef (SF2) D123N, YFP BiFC fusions (natural protein)”, for which, in test [12], the % decrease in BiFC relative to WT was 97.1%.
